# Results reported in patent US20120058906A1 (published 2012).
# B1: Fab VH6-1_IGHD3-3*01_IGHJ4*01 & V4-3_IGLJ4*01 (Fab, V domains shown)
# VH: QVQLQQSGPGLVKPSQTLSLTCAISGDSVSSNSAAWNWIRQSPSRGLEWLGRTYYRSKWYNDYAVSVKSRITINPDTSKNQFSLQLNSVTPEDTAVYYCAREYYDFWSGYYTDYFDYWGQGTLVTVSS
# VL: QPVLTQPTSLSASPGASARLTCTLRSGINLGSYRIFWYQQKPESPPRYLLSYYSDSSKHQGSGVPSRFSGSKDASSNAGILVISGLQSEDEADYYCMIWHSSASFVFGGGTQLIIL
# notes: Tested as a Fab made in E. coli; also called IGHV6-1*01
# B2: Fab VH1-46_IGHD6-6*01_IGHJ1*01 & L6_IGKJ1*01 (Fab, V domains shown)
# VH: QVQLVQSGAEVKKPGASVKVSCKASGYTFTSYYMHWVRQAPGQGLEWMGIINPSGGSTSYAQKFQGRVTMTRDTSTSTVYMELSSLRSEDTAVYYCAREEYSSSSAEYFQHWGQGTLVTVSS
# VL: not shown
# notes: Expressed in E. coli as Fab: heavy chain with CH1 plus Flag and His tags from Plasmid A, kappa light chain constant region from Plasmid C; also called Fab No. 1
# B3: Fab VH1-8_IGHD2-2*01_IGHJ6*01 & L12_IGKJ1*01 (Fab, V domains shown)
# VH: QVQLVQSGAEVKKPGASVKVSCKASGYTFTSYDINWVRQATGQGLEWMGWMNPNSGNTGYAQKFQGRVTMTRNTSISTAYMELSSLRSEDTAVYYCARGGYCSSTSCYADYYYYYGMDVWGQGTTVTVSS
# VL: not shown
# What was measured:
# [1] = target: T1, Recombinant Human DLL4 (R&D Systems Cat#1506-D4/CF) (human, UniProt Q9NR61 27-524); experiment: ECL (MSD Multi-Spot) binding assay, antigen spotted on plate; Fab 480 nM; blank spot 362
# T1 construct: Bought recombinant protein; also called delta-like protein 4; rHuman DLL4
# [2] = target: T2, rHuman Notch-1/Fc Chimera, CF (R&D Systems Cat#3647-TK) (human, UniProt P46531 19-526); experiment: as above
# T2 construct: Bought Fc chimera; Fc part of the bought chimera not given
# [3] = target: T3, rHuman Erythropoietin R/Fc Chimera, CF (R&D Systems Cat#963-ER) (human, UniProt P19235 25-250); experiment: as above
# T3 construct: Bought Fc chimera; also called EPO R/Fc; Epo R; Fc part of the bought chimera not given
# T3 sequence: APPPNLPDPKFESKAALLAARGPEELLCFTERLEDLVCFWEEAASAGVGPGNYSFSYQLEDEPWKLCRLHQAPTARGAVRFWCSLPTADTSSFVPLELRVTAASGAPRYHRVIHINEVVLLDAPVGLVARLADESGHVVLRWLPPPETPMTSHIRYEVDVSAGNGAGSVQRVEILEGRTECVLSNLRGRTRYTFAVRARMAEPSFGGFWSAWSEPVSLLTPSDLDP
# [4] = target: T4, rHuman CD44/Fc Chimera, CF (R&D Systems Cat#3660-CD) (human, UniProt P16070 21-220); experiment: as above
# T4 construct: Bought Fc chimera; Fc part of the bought chimera not given
# [5] = target: T5, rHuman P-Cadherin/Fc Chimera, CF (R&D Systems Cat#861-PC) (human, UniProt P22223 108-654); experiment: as above
# T5 construct: Bought Fc chimera; also called CDH3; Fc part of the bought chimera not given
# [6] = target: T6, rHuman Erythropoietin R/Fc Chimera, CF (R&D Systems Cat#963-ER) (human, UniProt P19235 25-250); experiment: MSD ECL multi-spot, Fab 0.14 uM, blank 237
# T6 construct: Bought Fc chimera; also called EPO R/Fc; EPOR; Fc part of the bought chimera not given
# T6 sequence: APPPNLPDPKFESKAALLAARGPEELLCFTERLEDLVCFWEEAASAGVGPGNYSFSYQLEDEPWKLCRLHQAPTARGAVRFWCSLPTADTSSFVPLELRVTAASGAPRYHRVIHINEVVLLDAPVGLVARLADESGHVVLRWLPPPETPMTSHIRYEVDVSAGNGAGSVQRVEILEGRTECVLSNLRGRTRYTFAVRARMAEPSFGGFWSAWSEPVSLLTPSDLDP
# [7] = target: T7, rHuman HGF R/c-MET/Fc Chimera, CF (R&D Systems Cat#358-MT/CF) (human, UniProt P08581 25-932); experiment: MSD ECL multi-spot, Fab 0.14 uM, blank 237
# T7 construct: Bought Fc chimera; also called HGF R/Fc; Fc part of the bought chimera not given
# [8] = target: T8, rHuman ErbB2/Fc Chimera, CF (R&D Systems Cat#1129-ER) (human, UniProt P04626 23-652); experiment: MSD ECL multi-spot, Fab 0.14 uM, blank 237
# T8 construct: Bought Fc chimera; also called HER2/neu; Fc part of the bought chimera not given
# [9] = target: T9, rHuman IGF-1 sR (insulin-like growth factor-1 soluble receptor), CF (R&D Systems Cat#391-GR) (human, UniProt P08069 31-932); experiment: MSD ECL multi-spot, Fab 0.14 uM, blank 237
# T9 construct: Bought soluble receptor; also called IGF-R1
# [10] = target: T10, Recombinant Human DLL4 (R&D Systems Cat#1506-D4/CF) (human, UniProt Q9NR61 27-524); experiment: MSD ECL multi-spot, Fab 0.14 uM, blank 237
# T10 construct: Bought recombinant protein; also called rHuman DLL4; delta-like protein 4
# [11] = target: T11, rHuman Notch-1/Fc Chimera, CF (R&D Systems Cat#3647-TK) (human, UniProt P46531 19-526); experiment: MSD ECL multi-spot, Fab 0.14 uM, blank 237
# T11 construct: Bought Fc chimera; Fc part of the bought chimera not given
# [12] = target: T12, rHuman P-Cadherin/Fc Chimera, CF (R&D Systems Cat#861-PC) (human, UniProt P22223 108-654); experiment: MSD ECL multi-spot, Fab 0.14 uM, blank 237
# T12 construct: Bought Fc chimera; Fc part of the bought chimera not given
# [13] = target: T13, rHuman EGF R/Fc Chimera, CF (R&D Systems Cat#344-ER) (human, UniProt P00533 25-645); experiment: MSD ECL multi-spot, Fab 0.14 uM, blank 237
# T13 construct: Bought Fc chimera; Fc part of the bought chimera not given
# [14] = target: T14, rHuman CD44/Fc Chimera, CF (R&D Systems Cat#3660-CD) (human, UniProt P16070 21-220); experiment: MSD ECL multi-spot, Fab 0.14 uM, blank 237
# T14 construct: Bought Fc chimera; Fc part of the bought chimera not given
# [15] = target: T8, rHuman ErbB2/Fc Chimera, CF (R&D …); experiment: MSD ECL titration, Fab 9.3 nM, blank 287
# [16] = target: T15, rHuman Notch-1/Fc Chimera, CF (R&D Systems Cat#3647-TK) (human, UniProt P46531 19-526); experiment: MSD ECL multi-spot plate; Fab 130 nM; blank spot 1153
# T15 construct: Fc part of the bought chimera not given
# [17] = target: T16, rHuman HGF R/c-MET/Fc Chimera, CF (R&D Systems Cat#358-MT/CF) (human, UniProt P08581 25-932); experiment: as above
# T16 construct: also called HGF R/Fc; hepatocyte growth factor receptor; Fc part of the bought chimera not given
# [18] = target: T17, rHuman Erythropoietin R/Fc Chimera, CF (R&D Systems Cat#963-ER) (human, UniProt P19235 25-250); experiment: as above
# T17 construct: also called EPO R/Fc; Epo R; Fc part of the bought chimera not given
# T17 sequence: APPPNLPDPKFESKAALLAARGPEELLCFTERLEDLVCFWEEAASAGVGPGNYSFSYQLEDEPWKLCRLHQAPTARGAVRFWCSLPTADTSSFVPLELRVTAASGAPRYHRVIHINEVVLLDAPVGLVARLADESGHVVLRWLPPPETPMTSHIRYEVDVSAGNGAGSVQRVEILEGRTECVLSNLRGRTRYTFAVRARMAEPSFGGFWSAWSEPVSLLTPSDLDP
# [19] = target: T18, rHuman IGF-1 sR, (IGF-1 sR), CF (R&D Systems Cat#391-GR) (human, UniProt P08069 31-932); experiment: as above
# T18 construct: also called insulin-like growth factor-1 soluble receptor; IGF-R1
# 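Note: blank spot per well as comparator with Hit at signal to blank ratio of 4 or more.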
binder,measurement,setting,value
B1,ECL signal,[1],1530
same,ECL signal,[2],545
same,ECL signal,[3],621
same,ECL signal,[4],541
same,ECL signal,[5],596
B2,ECL signal,[6],693
same,ECL signal,[7],848
same,ECL signal,[8],870
same,ECL signal,[9],663
same,ECL signal,[10],19300
same,ECL signal,[11],614
same,ECL signal,[12],423
same,ECL signal,[13],823
same,ECL signal,[14],515
same,ECL signal,[15],354
B3,ECL signal,[16],1760 ECL signal
same,ECL signal,[17],1880 ECL signal
same,ECL signal,[18],2150 ECL signal
same,ECL signal,[19],1970 ECL signal
